In patent US9358023B2, “Systems and methods for opening of a tissue barrier” (priority 2009, dated 2016):

B1: BDNF: BDNF Human Recombinant produced in Escherichia Coli, homodimer, non-glycosylated, 2×119 amino acids, 27 kDa (protein, UniProt P23560 19-247, looked up)
Neurotrophic factor BDNF …: APMKEANIRGQGGLAYPGVRTHGTLESVNGPKAGSRGLTSLADTFEHVIEELLDEDQKVRPNEENNKDADLYTSRVMLSSQVPLEPPLLFLLEEYKNYLDAANMSMRVRRHSDPARRGELSVCDSISEWVTAADKKTAVDMSGGTVTVLEKVPVSKGQLKQYFYETKCNPMGYTKEGCRGIDKRHWNSQCRTTQSYVRALTMDSKKRIGWRFIRIDTSCVCTLTIKRGR
modifications: E. coli-expressed, non-glycosylated homodimer
notes: BDNF Human Recombinant produced in Escherichia Coli, homodimer, non-glycosylated, 2×119 amino acids, 27 kDa

How the values were obtained:
blood-brain barrier [1] = experiment: Volume and duration of FUS-induced BBB opening with size-isolated microbubbles, by Gd-DTPA-BMA contrast-enhanced T1 MRI; format: in vivo, mice (C57BL/6)
From the text: Acoustic waves used were generated by a single-element, spherical-segment FUS transducer (center frequency: 1.5 MHz, focal depth: 60 mm, radius: 30 mm; Imasonic, France), which was driven by a function generator (Agilent, Palo Alto, Calif.) through a 50-dB power amplifier (E&I, Rochester, N.Y.) (for example as shown in FIG. 5). A central-void (radius: 11.2 mm) of the therapeutic transducer held a pulse-echo ultrasound transducer (center frequency: 10 MHz, focal length: 60 mm), which was used for imaging, with their two foci aligned. The imaging transducer was driven by a pulser-receiver (Olympus, Waltham, Mass.) connected to a digitizer (Gage Applied Technologies, Lachine, QC, Canada). A cone filled with degassed and distilled water was mounted onto the transducer system and was fitted with a polyurethane membrane (Trojan; Church & Dwight Co., Princeton, N.J.). The transducers were attached to a computer-controlled 3D positioning system (Velmex, Lachine, QC, Canada). The targeting procedure has been described herein. […]
BBB opening in the murine hippocampus was confirmed using a 9.4 T system (Broker Medical; Boston, Mass.). […] Vital signals were monitored and respiration rate was approximately 55 breaths/min. […] In the five cases where signal enhancement was detected on day 5, MRI sessions were repeated on day 7. […]

[2] = tested on: phosphorylated TrkB receptor (pTrkB Y816 and Y515); experiment: Immunohistochemistry DAB stain intensity after FUS and BDNF: phosphorylated TrkB; format: in vivo, mice (C57Bl6)
Method: (§1) Immunohistochemistry was performed only in the case of BDNF. Five primary antibodies were used: two against phosphorylated TrkB receptor (p-Y816 rabbit polyclonal [ab75173] and p-Y515, rabbit polyclonal [ab51187]) purchased from Abeam Inc. (Cambridge, Mass.), and three against phosphorylated Akt (p-S473 rabbit monoclonal [#4060]), phosphorylated MAPK (p-T202/T204 rabbit monoclonal [#4370]), and phosphorylated CREB (p-S133 rabbit monoclonal [#9198]), all purchased from Cell Signaling Technology (Danvers, Mass.). Slides containing thin frozen sections (5-10 μm) were dried and placed in a citrate buffer (pH 6.0) for antigen retrieval using a microwave. Slides were allowed to cool for 20 minutes prior to a PBS rinse (3×5 min) and then incubated in 0.3% hydrogen peroxide in PBS (five min) to block endogenous peroxidase activity. Slides were washed again in PBS (3×5 min) and blocked in 10% normal goat serum with 0.1% BSA for 20 minutes. After blocking solution was removed, the primary antibodies were diluted in DAKO antibody diluent solution (1:50-1:300) and incubated for 60 minutes at room temperature. Slides were washed in PBS for five min and incubated with biotinylated secondary antibody (goat anti-rabbit 1:200; Vector Laboratories, Burlingame, Calif.) for 30 minutes at room temperature. […]

[3] = tested on: phosphorylated MAPK (T202-T204); experiment: Immunohistochemistry DAB stain intensity after FUS and BDNF: phosphorylated MAPK; format: in vivo, mice (C57Bl6)
Method: as §1

[4] = tested on: phosphorylated CREB (S133); experiment: Immunohistochemistry DAB stain intensity after FUS and BDNF: phosphorylated CREB; format: in vivo, mice (C57Bl6)
Method: as §1

[5] = tested on: phosphorylated Akt (S473); experiment: Immunohistochemistry DAB stain intensity after FUS and BDNF: phosphorylated Akt; format: in vivo, mice (C57Bl6)
Method: as §1

[6] = in vivo; cited from earlier work
[7] = tested on: ACHE (acetylcholine esterase); conditions: dose-dependent induction of ACHE, rat basal forebrain primary septal culture; according to the supplier; cited from earlier work
blood-brain barrier [8] = experiment: Delivery of Alexa Fluor 594-tagged BDNF across the FUS-opened BBB, fluorescence of brain sections; conditions: mouse sacrificed 20 min after sonication
[9] = BDNF-administered mice, sacrificed 20-30 min, N=3

Row | Molecule | time to peak signal enhancement in the sonicated hippocampus after IP injection (blood-brain barrier [1]) | mean percent change in DAB stain intensity between left and right hippocampal regions, pTrkB (Y515 and Y816 combined) [2, 9] [%] | difference in DAB intensity between left sonicated hippocampus and control, pTrkB ([2]; mouse expiring 3 min after BDNF injection) | mean percent change in DAB stain intensity between left and right hippocampal regions, pMAPK [3, 9] [%] | difference in DAB intensity between sonicated and control hippocampus, pMAPK ([3]; mouse sacrificed 3 min) | difference in DAB intensity between left sonicated hippocampus and control, pCREB ([4]; 3-min case) | mean percent change in DAB stain intensity between left and right hippocampal regions, pCREB [4, 9] [%] | difference in DAB intensity between left sonicated hippocampus and control, pAkt ([5]; 3-min case) | mean percent change in DAB stain intensity, pAkt, BDNF-administered mice vs control mice ([5]; sacrificed 20-30 min) | half-life of circulating BDNF [6] | ED50 [7] [µg/mL] | fluorescent intensity, sonicated hippocampus (left) vs un-sonicated hippocampus (right) (blood-brain barrier [8])
1 | CNC(=O)CN(CCN(CCN(CC(=O)[O-])CC(=O)NC)CC(=O)[O-])CC(=O)[O-].[Gd+3] [Gd-DTPA-BMA] | approximately 1 h | – | – | – | – | – | – | – | – | – | – | –
2 | B1 | – | 25.22 | observed | 60.58 | No difference in DAB intensity | not | 56.91 | not | similar | less than 10 min | 0.05 | much higher fluorescent intensity
